In general, Kd refers to a measure of binding affinity in units of concentration. Low readings indicate higher affinity, high ones lower affinity. In general, koff refers to the rate constant with which the complex falls apart. The low end stands for slow dissociation, the high end for fast dissociation. In general, kon refers to a measure of how fast the partners come together. Higher therefore signals fast association. By EC50 is commonly meant the concentration needed to bring the measured effect to its halfway point. Read a high EC50 as a need for much substance.

Like-named read-outs stand apart in the source and are kept apart here.

This note sets out measurements from US20220363763A1 (ABL BIO, published 2022).

The target of test [1] is T1, human PD-L1 (construct not stated) (human, UniProt Q9NZQ7 19-239, limits assumed).
T1 construct: also called B7-H1 (PD-L1); PD-L1 protein
As to the kind of experiment: BLI Octet Red 96, affinity ranking. The text has this: To explore the binding kinetics of the humanized antibody, this example performed the affinity ranking by using Octet Red 96.

Test [2] has as its target T2, human PD-L1-his taq protein (human, UniProt Q9NZQ7 19-239, limits assumed).
T2 construct: also called recombinant PD-L1 protein; recombinant human PD-L1; not shown: his tag
As to the kind of experiment: SPR Biacore T200, antibody captured, PD-L1-his injected. The essentials: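 HL1210-3 mouse mAb was captured via anti-mouse Fc antibody on a CM5 chip, then serially diluted PD-L1-his was injected for 3 min […]. Dissociation was followed for 900 s.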
(In general: Surface plasmon resonance follows binding to a sensor surface in real time, without labels.)

The target in test [3] is T3, human PD-L1 expressed on mammalian cells (human, UniProt Q9NZQ7 19-290).
T3 construct: whole, on cells; also called PDL1-CHOK1 cells; PDL1-Raji cells
As to the kind of experiment: FACS receptor blocking on PDL1-CHOK1 cells, competitor Bio-PD1 (30 µg/ml). As for the experimental part:
To evaluate the blocking effect of humanized antibodies on human PD-L1 expressed on mammalian cells to bind to its receptor PD-1, the FACS-based receptor blocking assay was employed. Briefly, PDL1-CHOK1 cells were firstly incubated with 3-fold serious diluted HL1210-3 mouse mAb starting at 20 μg/ml at RT for 1 hour. After wash by FACS buffer (PBS with 2% FBS), the biotin-labeled huPD-1 were added to each well and incubated at RT for 1 hour. Then, the Streptavidin-PE was added to each well for 0.5 hour post twice wash with FACS buffer. The mean florescence intensity (MFI) of PE was evaluated by FACSAriaIII.

The target of test [4] is T4, human PD-L1-Fc protein (human, UniProt Q9NZQ7 19-239).
T4 construct: Coated on ELISA plates; also called huPD-L1; not shown: Fc part
As to the kind of experiment: ELISA on coated human PD-L1-Fc; EC50 table has no unit, x axis Ab(nM). As for the experimental part: (§1) To evaluate the antigen binding activity, the humanized antibodies were subjected to ELISA test. Briefly, microtiter plates were coated with human PD-L1-Fc protein at 0.1 μg/ml in PBS, 100 μl/well at 4° C. overnight, then blocked with 100 μl/well of 5% BSA. Five-fold dilutions of humanized antibodies starting from 10 μg/ml were added to each well and incubated for 1-2 hours at RT. The plates were washed with PBS/Tween and then incubate with […] antibody conjugated with Horse Radish Peroxidase (HRP) for 1 hour at RT. After washing, the plates were developed with TMB substrate and analyzed by spectrophotometer at OD 450-630 nm.
For orientation: ELISA stands for enzyme-linked immunosorbent assay.

Test [5] concerns the target T4, human PD-L1-Fc protein. The test is described as above. As for the experimental part: as §1
The source holds these as a separate data set.

Test [6] has as its target T4, human PD-L1-Fc protein. Described as above. The protocol: as §1
This is another data set of the same source.

Test [7] deals with T4, human PD-L1-Fc protein. The test is described as above. As for the experimental part:
as §1
The source holds these as a separate data set.

Test [8] deals with T4, human PD-L1-Fc protein. The description is as above. As for the experimental part: as §1
This is another data set of the same source.

Test [9] has as its target T3, human PD-L1 expressed on mammalian cells. The experiment in a line: flow cytometry (MFI) on PDL1-CHOK1 cells; EC50 table has no unit, x axis Antibodies(nM). As for the experimental part:
(§2) To evaluate the antigen binding property, the humanized antibodies were analyzed for its binding to mammalian expressed PD-L1 by FACS. Briefly, PDL1-CHOK1 cells were firstly incubated with 5-fold serious diluted humanized antibodies starting at 2 μg/ml at RT for 1 hour. After wash by FACS buffer (PBS with 2% FBS), the alexa 488-anti-human IgG antibody was added to each well and incubated at RT for 1 hour. The MFI of Alexa 488 was evaluated by FACSAriaIII.
(A flow cytometer gives signals particle by particle.)

For test [10] the target is unchanged. The description is as above. The protocol:
as §2
The source holds these as a separate data set.

Test [11] shares this target. Described as above. The protocol: as §2
The source holds these as a separate data set.

The target of test [12] is T1, human PD-L1 (construct not stated). As to the kind of experiment: SPR Biacore, affinity ranking.
The target in test [13] is T3, human PD-L1 expressed on mammalian cells. The experiment in a line: cell-based binding on Raji-PDL1 cells (FACS by paragraph 328; the y axis of the sheet is labelled IL2 (ng/ml)); EC50 table has no unit, x axis Concentration (nM). As for the experimental part: To evaluate the antigen binding property, the antibodies were analyzed for its binding to mammalian expressed PD-L1 by FACS. Briefly, PDL1-Raji cells were firstly incubated with 5-fold serious diluted humanized antibodies starting at 2 µg/ml at RT for 1 hour. After wash by FACS buffer (PBS with 2% FBS), the Alexa 488-anti-human IgG antibody was added to each well and incubated at RT for 1 hour. The MFI of Alexa 488 was evaluated by FACSAriaIII.

T1 sequence (Q9NZQ7 19-239 limits assumed): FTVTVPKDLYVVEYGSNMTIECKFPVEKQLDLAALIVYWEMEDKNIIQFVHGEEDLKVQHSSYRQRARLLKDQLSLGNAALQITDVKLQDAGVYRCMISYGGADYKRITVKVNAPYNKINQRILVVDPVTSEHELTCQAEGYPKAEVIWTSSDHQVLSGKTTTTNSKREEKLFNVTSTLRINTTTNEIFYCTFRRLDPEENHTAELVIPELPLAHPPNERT
T4 sequence (Q9NZQ7 19-239 limits assumed): as above
T2 sequence (Q9NZQ7 19-239 limits assumed): as above
T3 sequence (Q9NZQ7 19-290): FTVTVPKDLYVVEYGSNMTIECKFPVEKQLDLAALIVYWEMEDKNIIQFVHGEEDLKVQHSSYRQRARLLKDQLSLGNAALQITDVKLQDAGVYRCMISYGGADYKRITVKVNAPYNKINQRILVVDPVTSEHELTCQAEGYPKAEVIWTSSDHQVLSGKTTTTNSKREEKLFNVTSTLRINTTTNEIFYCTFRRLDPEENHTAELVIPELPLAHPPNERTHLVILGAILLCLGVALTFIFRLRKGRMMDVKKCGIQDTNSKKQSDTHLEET

B1: H1210 chimera (antibody, V domains shown)
VH: EVKLVESGGDLVKPGGSLKLSCAASGFTFSSYDMSWVRQTPEKSLEWVATISDGGGYIYYSDSVKGRFTISRDNAKNNLYLQMSSLRSEDTALYICAREFGKRYALDYWGQGTSVTVSS
VL: DIVMTQSHKFMSTSVGDRVSISCKASQDVTPAVAWYQQKPGQSPKLLIYSTSSRYTGVPDRFTGSGSGTDFTFTISSVQAEDLAVYYCQQHYTTPLTFGAGTKLELK
notes: also called chimeric antibody
Take B1: the Kd in test [1] was found to be 1.07 nM; in test [2] it was 0.264 nM. The koff was 0.000173 s⁻¹ in test [1] and 3.27e-05 s⁻¹ in [2]. The kon in test [1] amounted to 162000 M⁻¹ s⁻¹; in [2], 124000 M⁻¹ s⁻¹. In addition, in [3], the TOP was 87.2. The EC50 is 0.177 nM in test [4]; 0.139 nM in [5]; 0.169 nM in [6]; 0.16 nM in test [7]; 0.17 nM in test [8]; 0.95 nM in test [9]. For the same molecule, the EC50 in [10] and in test [11] was 0.95 nM throughout.

B2: WT (parental clone of the Hu1210-41 engineering) (antibody, V domains shown)
VH: EVQLVESGGGLVQPGGSLRLSCAASGFTFSSYDMSWVRQAPGKSLEWVATISDAGGYIYYRDSVKGRFTISRDNAKNSLYLQMNSLRDEDTAVYICAREFGKRYALDYWGQGTTVTVSS
VL: DIQMTQSPSSLSASVGDRVTITCKASQDVTPAVAWYQQKPGKAPKLLIYSTSSRYTGVPSRFSGSGSGTDFTFTISSLQPEDIATYYCQQHYTTPLTFGQGTKLEIK
notes: Differs from Hu1210-41 by S60R (Kabat) in the heavy chain; also called parental antibody WT; parent antibody WT
In test [12], B2 gave a Kd of 2.63 nM, a koff of 0.000464 s⁻¹ and a kon of 177000 M⁻¹ s⁻¹. Besides, the EC50 in [13] stood at 5.04 nM.
